The values below come from the supplement of paper PMC11246515.

The data set is described as follows: total protein half-life in vivo (active degradation + dilution); higher = more stable protein.
[1] abbreviates: E. coli NCM3722 delta-clpP delta-lon delta-hslV, growth: N-lim chemostat, doubling time 6 h.
[2] abbreviates: E. coli NCM3722 delta-lon, growth: N-lim chemostat, doubling time 6 h.
Setting [3] is: E. coli NCM3722 delta-smpB, growth: N-lim chemostat, doubling time 6 h.
Where [4] appears, read: wild type E. coli NCM3722, growth: C-lim chemostat, doubling time 6 h.
[5] abbreviates: wild type E. coli NCM3722, growth: N-lim chemostat, doubling time 6 h.
[6] abbreviates: wild type E. coli NCM3722, growth: N-lim chemostat, doubling time 12 h.
The mark [7] stands for this setting: wild type E. coli NCM3722, growth: P-lim chemostat, doubling time 6 h.
[8] abbreviates: E. coli NCM3722 delta-clpP, growth: N-lim chemostat, doubling time 6 h.
The mark [9] stands for this setting: E. coli NCM3722 delta-hslV, growth: N-lim chemostat, doubling time 6 h.
The mark [10] stands for this setting: wild type E. coli NCM3722, growth: C-lim chemostat, doubling time 3 h.
Where [11] appears, read: wild type E. coli NCM3722, growth: C-lim chemostat, doubling time 12 h.
Setting [12] is: wild type E. coli NCM3722, growth: P-lim chemostat, doubling time 12 h.

± gives the standard deviation of the averaged measurements.

On to “MEGSDFLLAGVLFLFAAVAAVPLASRLGIGAVLGYLLAGIAIGPWGLGFISDVDEILHFSELGVVFLMFIIGLELNPSKLWQLRRSIFGVGAAQVLLSAALLAGLLMLTDFAWQAAVVGGIGLAMSSTAMALQLMREKGMNRSESGQLGFSVLLFQDLAVIPALALVPLLAGSADEHFDWMKVGMKVLAFVGMLIGGRYLLRPVFRFIAASGVREVFTAATLLLVLGSALFMDALGLSMALGTFIAGVLLAESEYRHELETAIDPFKGLLLGLFFISVGMSLNLGVLYTHLLWVVISVVVLVAVKILVLYLLARLYGVRSSERMQFAGVLSQGGEFAFVLFSTASSQRLFQGDQMALLLVTVTLSMMTTPLLMKLVDKWLSRQFNGPEEEDEKPWVNDDKPQVIVVGFGRFGQVIGRLLMANKMRITVLERDISAVNLMRKYGYKVYYGDATQVDLLRSAGAEAAESIVITCNEPEDTMKLVEICQQHFPHLHILARARGRVEAHELLQAGVTQFSRETFSSALELGRKTLVTLGMHPHQAQRAQLHFRRLDMRMLRELIPMHADTVQISRAREARRELEEIFQREMQQERRQLDGWDEFE”, for which the “total protein half-life in vivo” value amounted to 7.22 ± 0.56 h under setting [1]; 6.81 ± 1.1 h under setting [2]; 6.39 ± 1.5 h under setting [3]; 5.87 ± 0.17 h under setting [4]; 5.996 ± 0.021 h under setting [5]; 13.6 ± 2 h under setting [6]. In addition, the “total protein half-life in vivo” value under setting [7] came to 7.09 ± 1.1 h.

For the sequence “MLQNCAQSNCRIIPKKLRDMKREEICRLLADKVNKLKNKENSLSGLLPDVRLLYGETPFARTPVMYEPGIIILFSGHKIGYINERVFRYDANEYLLLTVPLPFECETYATSEVPLAGLRLNVDILQLQELLMDIGEDEHFQPSMAASGINSATLSEEILCAAERLLDVMERPLDARILGKQIIREILYYVLTGPCGGALLALVSRQTHFSLISRVLKRIENKYTENLSVEQLAAEANMSVSAFHHNFKSVTSTSPLQYLKNYRLHKARMMIIHDGMKASAAAMRVGYESASQFSREFKRYFGVTPGEDAARMRAMQGN”, the “total protein half-life in vivo” value is 5 ± 0.43 h under setting [1]; 3.07 ± 0.072 h under setting [8]; 2.48 ± 0.13 h under setting [9]; 4.33 ± 0.18 h under setting [2]; 2.432 ± 0.0042 h under setting [3]; 2.08 ± 0.1 h under setting [10]. In addition, the “total protein half-life in vivo” value is 3.87 ± 0.56 h under setting [4]; 4.94 h under setting [11]; 2.98 h under setting [5]; 3.71 ± 0.24 h under setting [6]; 2.74 h under setting [7]; 4.35 ± 0.82 h under setting [12].

Take “MSDDMSMGLPSSAGEHGVLRSMQEVAMSSQEASKMLRTYNIAWWGNNYYDVNELGHISVCPDPDVPEARVDLAQLVKTREAQGQRLPALFCFPQILQHRLRSINAAFKRARESYGYNGDYFLVYPIKVNQHRRVIESLIHSGEPLGLEAGSKAELMAVLAHAGMTRSVIVCNGYKDREYIRLALIGEKMGHKVYLVIEKMSEIAIVLDEAERLNVVPRLGVRARLASQGSGKWQSSGGEKSKFGLAATQVLQLVETLREAGRLDSLQLLHFHLGSQMANIRDIATGVRESARFYVELHKLGVNIQCFDVGGGLGVDYEGTRSQSDCSVNYGLNEYANNIIWAIGDACEENGLPHPTVITESGRAVTAHHTVLVSNIIGVERNEYTVPTAPAEDAPRALQSMWETWQEMHEPGTRRSLREWLHDSQMDLHDIHIGYSSGIFSLQERAWAEQLYLSMCHEVQKQLDPQNRAHRPIIDELQERMADKMYVNFSLFQSMPDAWGIDQLFPVLPLEGLDQVPERRAVLLDITCDSDGAIDHYIDGDGIATTMPMPEYDPENPPMLGFFMVGAYQEILGNMHNLFGDTEAVDVFVFPDGSVEVELSDEGDTVADMLQYVQLDPKTLLTQFRDQVKKTDLDAELQQQFLEEFEAGLYGYTYLEDE”: the “total protein half-life in vivo” value under setting [1] is 4.96 ± 0.56 h; the “total protein half-life in vivo” value under setting [8] came to 4.38 ± 0.22 h; the “total protein half-life in vivo” value under setting [9] was determined as 4.3 ± 0.57 h; the “total protein half-life in vivo” value under setting [2] worked out at 4.28 ± 0.16 h; the “total protein half-life in vivo” value under setting [3] came to 3.97 ± 0.11 h; the “total protein half-life in vivo” value under setting [10] turned out to be 2.872 ± 0.017 h. The “total protein half-life in vivo” value by setting is: under setting [4], 5.43 ± 0.37 h; under setting [11], 9.85 ± 0.33 h; under setting [5], 3.93 ± 0.19 h; under setting [6], 5.91 ± 0.16 h; under setting [7], 5.54 ± 0.16 h; under setting [12], 11.5 ± 0.38 h.

As to “MRILHTSDWHLGQNFYSKSREAEHQAFLDWLLETAQTHQVDAIIVAGDVFDTGSPPSYARTLYNRFVVNLQQTGCHLVVLAGNHDSVATLNESRDIMAFLNTTVVASAGHAPQILPRRDGTPGAVLCPIPFLRPRDIITSQAGLNGIEKQQHLLAAITDYYQQHYADACKLRGDQPLPIIATGHLTTVGASKSDAVRDIYIGTLDAFPAQNFPPADYIALGHIHRAQIIGGMEHVRYCGSPIPLSFDECGKSKYVHLVTFSNGKLESVENLNVPVTQPMAVLKGDLASITAQLEQWRDVSQEPPVWLDIEITTDEYLHDIQRKIQALTESLPVEVLLVRRSREQRERVLASQQRETLSELSVEEVFNRRLALEELDESQQQRLQHLFTTTLHTLAGEHEA [P0AG76]”, the “total protein half-life in vivo” value came to 5.77 ± 0.37 h under setting [1]; 4.79 ± 1.6 h under setting [8]; 4.67 ± 0.67 h under setting [9]; 4.54 ± 0.071 h under setting [2]; 4.5 ± 0.46 h under setting [3]; 2.6 ± 0.049 h under setting [10]. Further, the “total protein half-life in vivo” value under setting [4] worked out at 5.4 ± 0.27 h; the “total protein half-life in vivo” value under setting [11] was found to be 9.11 ± 1.4 h; the “total protein half-life in vivo” value under setting [5] stood at 4.54 ± 0.17 h; the “total protein half-life in vivo” value under setting [6] worked out at 7.66 ± 0.56 h; the “total protein half-life in vivo” value under setting [7] was 5.46 ± 0.31 h; the “total protein half-life in vivo” value under setting [12] came to 7.9 ± 0.1 h.

“MALTAALKAQIAAWYKALQEQIPDFIPRAPQRQMIADVAKTLAGEEGRHLAIEAPTGVGKTLSYLIPGIAIAREEQKTLVVSTANVALQDQIYSKDLPLLKKIIPDLKFTAAFGRGRYVCPRNLTALASTEPTQQDLLAFLDDELTPNNQEEQKRCAKLKGDLDTYKWDGLRDHTDIAIDDDLWRRLSTDKASCLNRNCYYYRECPFFVARREIQEAEVVVANHALVMAAMESEAVLPDPKNLLLVLDEGHHLPDVARDALEMSAEITAPWYRLQLDLFTKLVATCMEQFRPKTIPPLAIPERLNAHCEELYELIASLNNILNLYMPAGQEAEHRFAMGELPDEVLEICQRLAKLTEMLRGLAELFLNDLSEKTGSHDIVRLHRLILQMNRALGMFEAQSKLWRLASLAQSSGAPVTKWATREEREGQLHLWFHCVGIRVSDQLERLLWRSIPHIIVTSATLRSLNSFSRLQEMSGLKEKAGDRFVALDSPFNHCEQGKIVIPRMRVEPSIDNEEQHIAEMAAFFRKQVESKKHLGMLVLFASGRAMQRFLDYVTDLRLMLLVQGDQPRYRLVELHRKRVANGERSVLVGLQSFAEGLDLKGDLLSQVHIHKIAFPPIDSPVVITEGEWLKSLNRYPFEVQSLPSASFNLIQQVGRLIRSHGCWGEVVIYDKRLLTKNYGKRLLDALPVFPIEQPEVPEGIVKKKEKTKSPRRRRR”: the “total protein half-life in vivo” value by setting is: under setting [1], 5.64 ± 0.42 h; under setting [8], 4.6 ± 0.54 h; under setting [9], 4.38 ± 0.61 h; under setting [2], 4.265 ± 0.026 h; under setting [3], 4.63 ± 0.33 h; under setting [10], 2.59 ± 0.09 h. Besides, the “total protein half-life in vivo” value under setting [4] turned out to be 3.93 ± 0.69 h; the “total protein half-life in vivo” value under setting [11] turned out to be 9.99 ± 0.84 h; the “total protein half-life in vivo” value under setting [5] is 4.18 ± 0.2 h; the “total protein half-life in vivo” value under setting [6] came to 6.77 ± 1.1 h; the “total protein half-life in vivo” value under setting [7] is 4.57 ± 0.25 h; the “total protein half-life in vivo” value under setting [12] was 8.11 ± 0.31 h.
